According to patent US10662241B1, “HER3 antigen-binding molecules” (Hummingbird Bioscience Holdings Pte. Ltd., priority 2019, dated 2020):
Entries after “also recorded” stand apart in the source; their conditions may differ. One block for each molecule: values may come before it.

Legend:
OVCAR8 cells = experiment: Antibody internalisation, pHrodo imaging, OVCAR8; format: cell-based; conditions: 120 nM, 24 hours
Procedure: (§1) Briefly, 100,000 HEK293 cells engineered to express HER3, HCC95, N87 or OVCAR8 cells were seeded in wells of 96-well tissue culture plates and cultured overnight at 37° C. in 5% CO2. […] The cells in culture were imaged every 30 min for 24 hours, in 4 different fields of each well. The maximum signal intensity in the FITC channel of each field was quantified at 24 hours.

[1] = tested on: HEK293 cells engineered to express HER3; experiment: Antibody internalisation, pHrodo imaging, HEK293 HER3; format: cell-based; conditions: 120 nM, 24 hours, HEK293 overexpressing HER3
Procedure: as §1

cynomolgus macaque HER3 = experiment: ELISA cross-reactivity, cynomolgus macaque HER3; format: binding
Procedure: (§2) ELISAs were used to determine the binding specificity of the antibodies. The antibodies were analysed for binding to human HER3 polypeptide, as well as respective mouse, rat and monkey homologues of HER3 (Sino Biological Inc., China). The antibodies were also analysed for their ability to bind to human EGFR and human HER2 (Sino Biological Inc., China).
(§3) ELISAs were carried out according to standard protocols. Briefly, 96-well plates (Nunc, Denmark) were coated with 0.1 μg/ml of target polypeptide in phosphate-buffered saline (PBS) for 16 h at 4° C. After blocking for 1 h with 1% BSA in […] (TBS) at room temperature, the anti-HER3 antibody was serially diluted with the highest concentration being 10 μg/ml, and added to the plate, Post 1 h incubation at room temperature, plates were washed three times with TBS containing 0.05% Tween 20 (TBS-T) and were then incubated with a HRP-conjugated anti-His antibody (Life Technologies, Inc., USA) for 1 h at room temperature. After washing, plates were developed with colorimetric detection substrate 3,3′,5,5′-tetramethylbenzidine (Turbo-TMB; Pierce, USA) for 10 min. The reaction was stopped with 2M H2SO4, and OD was measured at 450 nm. […]

human EGFR = molecular target: T1, human EGFR (Homo sapiens, UniProt P00533); experiment: ELISA specificity, human EGFR; format: binding; conditions: antibody up to 10 μg/ml
T1 construct: purchased Sino Biological Inc., China
Procedure: as §2
(§4) ELISAs were carried out according to standard protocols. Briefly, 96-well plates (Nunc, Denmark) were coated with 0.1 μg/ml of target polypeptide in phosphate-buffered saline (PBS) for 16 h at 4° C. After blocking for 1 h with 1% BSA in […] (TBS) at room temperature, the anti-HER3 antibody was serially diluted with the highest concentration being 10 μg/ml, and added to the plate, Post 1 h incubation at room temperature, plates were washed three times with TBS containing 0.05% Tween 20 (TBS-T) and were then incubated with a HRP-conjugated anti-His antibody (Life Technologies, Inc., USA) for 1 h at room temperature. […] The reaction was stopped with 2M H2SO4, and OD was measured at 450 nm.
(§5) The antibodies were analysed for their ability to bind to human HER3 polypeptide as well as human HER1 (EGFR) and human HER2 (Sino Biological Inc., China). […]
(§6) ELISAs were carried out according to standard protocols. […] The reaction was stopped with 2M H2SO4, and OD was measured at 450 nm.

human HER2 = molecular target: T2, human HER2 (Homo sapiens, UniProt P04626); experiment: ELISA specificity, human HER2; format: binding; conditions: antibody up to 10 μg/ml
T2 construct: purchased Sino Biological Inc., China
Procedure: as §2, §4, §5, §6

mouse HER3 = molecular target: T3, mouse HER3 (Mus musculus, UniProt Q61526); experiment: ELISA cross-reactivity, mouse HER3; format: binding
T3 construct: purchased Sino Biological Inc., China
Procedure: as §2, §3

rat HER3 = molecular target: T4, rat HER3 (Rattus norvegicus, UniProt Q62799); experiment: ELISA cross-reactivity, rat HER3; format: binding
T4 construct: purchased Sino Biological Inc., China
Procedure: as §2, §3

human HER3 [2] = molecular target: T5, human HER3 (Homo sapiens, UniProt P21860); experiment: Immunohistochemistry of frozen human tissue sections; design: from tissue; host or cells: arrays of frozen tissue sections; conditions: mIgG2a format
Procedure: Anti-HER3 antibody 10D1F in mIgG2a format was evaluated for its ability to be used in immunohistochemistry for the detection of human HER3 protein.
Processing of sections was performed using Bond reagents (Leica Biosystems). Arrays of commercially-available frozen tissue sections were obtained. Slides were dried in a desiccator for 10 min and then subjected to the following treatments, with water washes and/or TBS-T rinses between steps: (i) fixation by treatment with 100% acetone for 10 min at room temperature; (ii) endogenous peroxidase blocking by treatment with 3% (v/v) H2O2 for 15 min at room temperature; (iii) blocking by treatment with 10% goat serum for 30 min at room temperature, (iv) incubation with 10D1F-mIgG2a at 1:250 dilution of a 6.2 mg/ml solution overnight at 4° C., (v) incubation with HRP-polymer conjugated goat anti-mouse antibody for 30 min at room temperature, and (vi) development with Bond Mixed DAB Refine for 5 min at room temperature, followed by rinsing with deionised water and 1× Bond Wash to stop the reaction.
Slides were then dehydrated, mounted in synthetic mounting media and scanned with high resolution.

[3] = tested on: HER3-mediated signalling (pHER3, pAKT); experiment: Inhibition of HER3-mediated signalling in vitro, phospho-western blot; format: cell-based; conditions: N87 and FaDu cells, 50 μg/ml 4 hrs, NRG 100 ng/ml
Procedure: Briefly, N87 and FaDu cells were seeded in wells of a 6 well plate with 10% serum at 37° C., 5% CO2. After 16 hrs, cells were starved by culture overnight in 1% FBS cell culture medium (to reduce signalling elicited by growth factors in the serum). […] Proteins were then extracted, quantified using standard Bradford protein assay, fractionated by SDS-PAGE, and transferred to nitrocellulose membranes. The membranes were then blocked and immunoblotted with the following antibodies overnight at 4° C. anti-pHER3, anti-pAKT, pan anti-HER3, pan anti-AKT and anti-beta-actin. The blots were visualized via Bio-Rad Clarity Western ECL substrate, and bands were quantified using densiometric analysis; data were normalized to beta actin controls.
N87, FaDu or OvCAR8 cells were seeded in wells in a 6 well plate with 10% serum overnight at 37° C. with 5% CO2. […] Antibodies tested were: 10D1F.FcA (10D1), Seribantumab (SBT), Elegemtumab (LJM), Pertuzumab (PTM), Cetuximab (CTX), and Trastuzumab (TZ).
Before harvesting, cells were stimulated with 100 ng/ml of NRG1, Protein extracted from cell lines were quantified using standard Bradford protein assay, Protein samples (50 μg) were fractionated by SDS-PAGE and transferred to nitrocellulose membrane. […] The blots were quantified using densiometric analysis and data was normalised to beta actin. […]

human HER3 [4] = molecular target: T5, human HER3; experiment: BLI competition between anti-HER3 antibodies for binding to HER3
Procedure: Bio-Layer Interferometry (BLI) experiments were performed using the Octet QK384 system (ForteBio), anti-Penta-HIS (HIS1K) coated biosensor tips (ForteBio, USA) were used to capture His-tagged human HER3 (75 nM; 300 s). […] The variable region of LJM-716 antibody was cloned in the PDZ vector having human IgG1 and IgKappa Fc backbone.
BLI experiments were performed as described in Example 3.5 with one alteration: 400 nM of competing antibodies were used. The variable regions of M-05-74 and M-08-11 antibodies were cloned in the PDZ vector having human IgG1 and IgKappa Fc backbone.

FaDu cells = experiment: CCK-8 proliferation assay, FaDu cells; format: cell-based; conditions: 5 days, from 100 μg/ml
Procedure: (§7) Cell proliferation was measuring using the CCK-8 proliferation assay (Dojindo, Japan) after a period of 5 days, in accordance with the manufacturers instructions, Briefly 1×CCK-8 solution was added to each well followed by incubation for 2 h at 37° C. The OD was then measured at 450 nm.

N87 cells = experiment: CCK-8 proliferation assay, N87 cells; format: cell-based; conditions: N87, 5 days, from 100 μg/ml
Procedure: as §7

[5] = tested on: PI3K/AKT/mTOR and MAPK signalling; experiment: Phosphoprotein Antibody Array, FaDu cells; format: cell-based; conditions: 50 μg/ml 4 hrs, NRG 100 ng/ml
Procedure: In further experiments the inventors investigated the intracellular signalling pathways affected by anti-HER3 antibody-mediated inhibition of HER3.
FaDu cells were seeded in wells of a 6 well plate with 10% serum at 37° C., 5% CO2. After 16 hrs, cells were starved by culture overnight in 1% FBS cell culture medium. […] Proteins were then extracted, quantified using standard Bradford protein assay, and incubated overnight with pre-blocked Phosphoprotein Antibody Array membrane (Ray Biotech) at 4° C., The membrane was then washed with washing buffer and incubated with detection antibody cocktail for 2 hrs at room temperature, followed by washing and incubation with HRP-Conjugated anti-IgG. After 2 hrs the membrane was washed and probed using the kit detection buffer. Images were captured with Syngene Gbox imaging system, the intensity of each dot/phosphoprotein was measured and percent inhibition was calculated by comparison with intensity measured for cells treated in the same way in the absence of the antibody.

T4 sequence (Q62799 20-1339): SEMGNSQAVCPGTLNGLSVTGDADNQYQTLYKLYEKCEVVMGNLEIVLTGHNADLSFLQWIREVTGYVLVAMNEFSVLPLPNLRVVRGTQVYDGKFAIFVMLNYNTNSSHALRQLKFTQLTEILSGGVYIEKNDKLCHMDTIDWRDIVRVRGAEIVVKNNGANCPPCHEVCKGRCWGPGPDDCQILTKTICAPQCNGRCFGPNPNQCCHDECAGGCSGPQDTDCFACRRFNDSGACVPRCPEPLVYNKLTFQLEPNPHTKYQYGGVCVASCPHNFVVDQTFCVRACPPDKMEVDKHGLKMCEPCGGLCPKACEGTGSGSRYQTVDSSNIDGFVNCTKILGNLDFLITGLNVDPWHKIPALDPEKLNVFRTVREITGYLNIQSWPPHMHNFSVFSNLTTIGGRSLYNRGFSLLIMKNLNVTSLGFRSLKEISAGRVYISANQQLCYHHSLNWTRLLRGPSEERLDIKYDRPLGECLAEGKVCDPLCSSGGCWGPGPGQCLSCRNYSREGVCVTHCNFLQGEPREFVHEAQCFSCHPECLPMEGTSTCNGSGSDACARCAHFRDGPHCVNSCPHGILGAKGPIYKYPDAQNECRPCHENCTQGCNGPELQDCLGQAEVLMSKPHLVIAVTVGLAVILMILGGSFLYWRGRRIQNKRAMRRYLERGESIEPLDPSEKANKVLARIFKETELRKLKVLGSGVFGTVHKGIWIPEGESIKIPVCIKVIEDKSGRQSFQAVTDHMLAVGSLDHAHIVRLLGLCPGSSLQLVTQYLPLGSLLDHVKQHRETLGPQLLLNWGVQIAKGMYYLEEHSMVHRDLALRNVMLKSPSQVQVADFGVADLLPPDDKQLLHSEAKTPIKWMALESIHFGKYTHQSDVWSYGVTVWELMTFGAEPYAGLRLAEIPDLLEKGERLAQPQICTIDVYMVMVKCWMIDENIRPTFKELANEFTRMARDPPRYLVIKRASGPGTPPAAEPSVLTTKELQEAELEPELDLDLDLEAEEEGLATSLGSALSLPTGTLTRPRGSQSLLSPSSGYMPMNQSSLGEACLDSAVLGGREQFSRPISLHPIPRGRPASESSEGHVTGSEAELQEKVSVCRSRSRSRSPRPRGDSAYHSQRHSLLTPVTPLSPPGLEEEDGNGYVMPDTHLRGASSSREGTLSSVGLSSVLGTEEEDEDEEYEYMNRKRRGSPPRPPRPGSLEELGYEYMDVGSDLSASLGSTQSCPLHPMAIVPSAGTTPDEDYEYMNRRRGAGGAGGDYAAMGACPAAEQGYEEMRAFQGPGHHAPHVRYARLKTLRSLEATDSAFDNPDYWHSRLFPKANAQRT
T3 sequence (Q61526 20-1339): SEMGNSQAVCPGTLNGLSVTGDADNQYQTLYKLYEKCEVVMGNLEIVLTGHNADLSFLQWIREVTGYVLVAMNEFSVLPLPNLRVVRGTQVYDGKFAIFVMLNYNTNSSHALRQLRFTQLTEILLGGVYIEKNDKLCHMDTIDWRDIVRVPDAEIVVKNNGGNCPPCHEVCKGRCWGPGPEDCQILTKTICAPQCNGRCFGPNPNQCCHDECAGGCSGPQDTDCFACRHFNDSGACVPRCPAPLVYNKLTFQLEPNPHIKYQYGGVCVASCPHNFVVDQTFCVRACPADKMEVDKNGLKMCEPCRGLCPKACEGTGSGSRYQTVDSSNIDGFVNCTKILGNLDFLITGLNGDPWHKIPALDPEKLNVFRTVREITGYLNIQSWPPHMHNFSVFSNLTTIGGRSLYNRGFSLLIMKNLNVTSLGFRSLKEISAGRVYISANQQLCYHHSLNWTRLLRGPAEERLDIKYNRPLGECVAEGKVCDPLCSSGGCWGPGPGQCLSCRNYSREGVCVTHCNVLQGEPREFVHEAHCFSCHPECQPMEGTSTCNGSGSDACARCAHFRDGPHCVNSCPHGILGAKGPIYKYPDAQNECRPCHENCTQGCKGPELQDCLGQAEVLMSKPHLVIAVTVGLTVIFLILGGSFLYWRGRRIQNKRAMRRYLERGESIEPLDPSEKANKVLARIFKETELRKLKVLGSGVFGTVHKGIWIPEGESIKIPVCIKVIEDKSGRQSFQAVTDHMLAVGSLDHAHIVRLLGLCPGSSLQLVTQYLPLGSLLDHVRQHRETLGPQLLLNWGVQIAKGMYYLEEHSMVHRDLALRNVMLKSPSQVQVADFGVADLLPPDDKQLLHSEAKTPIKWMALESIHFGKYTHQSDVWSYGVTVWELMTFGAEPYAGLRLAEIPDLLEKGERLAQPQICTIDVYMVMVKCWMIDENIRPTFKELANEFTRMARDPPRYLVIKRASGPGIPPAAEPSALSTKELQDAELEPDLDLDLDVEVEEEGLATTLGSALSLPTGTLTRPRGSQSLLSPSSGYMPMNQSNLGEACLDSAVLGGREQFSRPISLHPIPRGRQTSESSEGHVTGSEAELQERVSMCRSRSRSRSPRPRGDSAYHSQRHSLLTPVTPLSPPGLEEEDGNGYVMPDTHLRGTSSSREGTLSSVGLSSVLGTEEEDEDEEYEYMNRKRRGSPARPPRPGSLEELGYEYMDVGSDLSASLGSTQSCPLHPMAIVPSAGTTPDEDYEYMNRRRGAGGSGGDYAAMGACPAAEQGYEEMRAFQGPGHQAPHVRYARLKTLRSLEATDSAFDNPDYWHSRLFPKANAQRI

Binding to human EGFR (human EGFR): bind to human HER2 and human EGFR
Binding to human HER2 (human HER2): bind to human HER2 and human EGFR
Cross-reactivity with mouse HER3 (mouse HER3): substantial cross-reactivity
Cross-reactivity with rat HER3 (rat HER3): substantial cross-reactivity
B1: 4-35-B2: anti-HER3 antibody clone; VH = SEQ ID NO:127, VL = SEQ ID NO:135 (antibody, V domains shown)
VH: EIQLQQSGPELVKPGASVKVSCKASGYSFTDYNMYWVKQSHGKSLEWIGHINPYNGGTTYNQKFKGRATLTVDKSSSTAFMHLNSLTSEDSAVYFCVSLRWGAMDYWGQGTSVTVSS
VL: QIVLTQSPALMSASPGEKVTMTCSASSSVSYMYWYQQKPRSSPKPWIYLTSNLASGVPARFSGSGSGTSYSLTISSMEAEDAATYYCQQWNSNPYTFGGGTKLEIK
modifications: 4-35-B2 heavy chain variable region; 4-35-B2 light chain variable region
Cross-reactivity with cynomolgus macaque HER3 (cynomolgus macaque HER3): substantial cross-reactivity

Binding to human EGFR (human EGFR): not to bind
Cross-reactivity with mouse HER3 (mouse HER3): substantial cross-reactivity
Cross-reactivity with rat HER3 (rat HER3): substantial cross-reactivity
B3: 10D1: anti-HER3 antibody clone, parental mouse; VH = SEQ ID NO:24, VL = SEQ ID NO:74 (antibody, V domains shown)
VH: DVQLQESGPDLVKPSQSLSLTCTVTGYSITSGYSWHWIRQFPGNKLEWMGSIHYSGGTNYNPSLKSRISITRDTSKNQFFLQLNSVTTEDTATYFCARMTTAPRYPFDYWGQGTTLTVSS
VL: DIVMTQSQKFMSTSVGDRVSVTCKASQIVGSNVAWYQQKPGQSPKPLIYSASYRYSGVPDRFTASGSGTDFTLTITNVQSEDLAEYFCQQYSSHPLTFGAGTKLELK
modifications: 10D1 heavy chain variable region; 10D1 light chain variable region
Cross-reactivity with cynomolgus macaque HER3 (cynomolgus macaque HER3): substantial cross-reactivity
Inhibition of HER3 phosphorylation and downstream signalling [3]: inhibit HER3 phosphorylation and downstream signalling
Competition with MM-121 and/or LJM-716 for binding to HER3 (human HER3 [4]): not to compete with MM-121 and/or LJM-716 for binding to HER3; also recorded: distinct and topologically distant epitope of HER3 than MM-121 and/or LJM-716
Inhibition of cell proliferation (FaDu cells): dose-dependent inhibition of cell proliferation
Inhibition of cell proliferation (N87 cells): dose-dependent inhibition of cell proliferation
Inhibition of intracellular signalling pathways [5]: inhibit PI3K/AKT/mTOR and MAPK signalling

Continued, molecule first:

Molecule: LJM716: anti-HER3 antibody clone LJM716 (Garner et al., Cancer Res (2013) 73: 6024-6035), also referred to as Elgemtumab [reference compound]
Internalisation (OVCAR8 cells): Modest to moderate internalization
Internalisation [1]: significant internalization

B2: 10D1F: Anti-HER3 antibody 10D1F (VH SEQ ID NO:36, VL SEQ ID NO:83) in mIgG2a format, used for immunohistochemistry (antibody, V domains shown)
VH: QVQLQESGPGLVKPSQTLSLTCTVSGYSITSGYSWHWIRQHPGKGLEWIGSIRYSGGTDYNPSLKSLVTISADTSKNQFSLKLSSVTAADTAVYYCARMTTAPWYPFDYWGQGTTVTVSS
VL: DIQMTQSPSSVSASVGDRVTITCKASQIVGSNVAWYQQKPGKAPEPLIYSASYLYSGVPSRFSGSGSGTDFTLTISSLQPEDFATYYCQQYSSHPLTFGQGTKLEIK
modifications: mouse IgG2a constant regions; 10D1_c89 heavy chain variable region; 10D1_c89 light chain variable region
Staining of malignant and normal human tissue sections (human HER3 [2]): preferentially stained malignant human tissue sections, with low cross-reactivity to normal tissue
